Assay results as given in patent US20180105597A1 (Eli Lilly, published 2018).

T1: FcγR2a(H) (human, UniProt P12318 36-218)
T1 construct: also called human Fc-gamma receptor 2a, H form
T1 sequence (looked up): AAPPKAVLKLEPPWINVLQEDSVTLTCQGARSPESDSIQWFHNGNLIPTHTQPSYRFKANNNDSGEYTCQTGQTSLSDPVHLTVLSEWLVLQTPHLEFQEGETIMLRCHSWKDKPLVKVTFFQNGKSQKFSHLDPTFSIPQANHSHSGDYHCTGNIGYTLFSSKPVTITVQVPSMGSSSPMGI


Legend:
[1] = biological target: T2, huTGFβ RIIFc (recombinant extracellular domain of human TGFβ RII fused to Fc) (human, UniProt P37173 23-166); assay: ELISA, huTGFβ RIIFc coated, antibody titrated; LY3022859; binding ELISA
T2 construct: The Fc is not described; also called human TGFβ RIIFc; not shown: Fc part
T2 sequence (P37173 23-166): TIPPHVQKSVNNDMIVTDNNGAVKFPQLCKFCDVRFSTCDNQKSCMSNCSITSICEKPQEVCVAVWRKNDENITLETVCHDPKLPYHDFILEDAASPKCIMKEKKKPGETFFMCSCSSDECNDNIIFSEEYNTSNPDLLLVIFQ
Experimental: (§1) For binding assays, huTGFβ RIIFc was coated on microplates. […] After washing, plates were incubated with HRP-labelled goat anti-rat Fab detection antibody and subsequently TMB peroxidase substrate was added to the wells for color development. The values of absorbance at 405 nm were read on a microtiter plate reader (Molecular Devices Corp). EC₅₀ of the antibodies was analyzed using GraphPad Prism.

[2] = biological target: T3, TGFβ RII AP (UniProt P37173 23-166); assay: ligand blocking ELISA, TGFβ RII AP binding to coated TGFβ ligand 1 (competitor)
T3 sequence (P37173 23-166): as above
Experimental: (§2) A serial dilution of purified antibodies was incubated with TGFβ RII AP for 1 h in TGFβ-coated plates. After wash, p-nitrophenyl phosphate substrate was added to the wells for color development. The values of absorbance at 405 nm were read on a microtiter plate reader (Molecular Devices Corp) for the quantification of TGFβ RII binding to TGFβ. IC50 of the antibodies was analyzed using GraphPad Prism.

[3] = biological target: T3, TGFβ RII AP; assay: ligand blocking ELISA, TGFβ RII AP binding to coated TGFβ ligand 2 (competitor)
Experimental: as §2

[4] = biological target: T3, TGFβ RII AP; assay: ligand blocking ELISA, TGFβ RII AP binding to coated TGFβ ligand 3 (competitor)
Experimental: as §2

[5] = biological target: T2, huTGFβ RIIFc (recombinant extracellular …); assay: SPR (Biacore), TGFβ RII-Fc extracellular domain immobilized at low density; LY3022859; KD
Experimental: (§3) The association (kon) and dissociation (koff) rates were determined using BIAevaluation 2.1 software.

[6] = biological target: human C1q (human, UniProt P02745 23-245; P02746 28-253; P02747 29-245); assay: cell-based or functional assay
Sequence of human C1q (P02745 23-245 limits assumed, chain 1 of 3): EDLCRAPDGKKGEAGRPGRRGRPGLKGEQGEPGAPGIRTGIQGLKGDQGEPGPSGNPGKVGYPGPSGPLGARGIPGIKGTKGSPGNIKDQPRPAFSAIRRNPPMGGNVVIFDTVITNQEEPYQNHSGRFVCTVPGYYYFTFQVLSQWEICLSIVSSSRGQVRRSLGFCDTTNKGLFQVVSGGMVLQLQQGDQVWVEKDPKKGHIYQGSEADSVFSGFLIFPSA
Sequence of human C1q (P02746 28-253 limits assumed, chain 2 of 3): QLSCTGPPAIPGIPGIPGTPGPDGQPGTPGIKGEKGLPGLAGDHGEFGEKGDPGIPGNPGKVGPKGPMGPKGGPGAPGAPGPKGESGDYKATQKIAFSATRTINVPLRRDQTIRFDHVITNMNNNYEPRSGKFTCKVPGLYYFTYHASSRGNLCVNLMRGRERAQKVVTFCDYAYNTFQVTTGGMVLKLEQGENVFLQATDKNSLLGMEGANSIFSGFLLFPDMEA
Sequence of human C1q (P02747 29-245 limits assumed, chain 3 of 3): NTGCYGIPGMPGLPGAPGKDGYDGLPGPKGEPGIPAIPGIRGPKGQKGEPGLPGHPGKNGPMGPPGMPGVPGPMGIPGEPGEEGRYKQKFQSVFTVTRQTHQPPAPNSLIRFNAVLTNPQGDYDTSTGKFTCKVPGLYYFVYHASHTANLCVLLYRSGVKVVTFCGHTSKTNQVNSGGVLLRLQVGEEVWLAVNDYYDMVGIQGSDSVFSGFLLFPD

[7] = biological target: T2, huTGFβ RIIFc (recombinant extracellular …); assay: ELISA, huTGFβ RIIFc coated, antibody titrated; Antibody A; binding ELISA
Experimental: as §1

[8] = biological target: T4, FcγR1 (human, UniProt P12314 16-288); assay: solid phase binding assay (Meso Scale), receptor coated, antibody titrated
T4 construct: also called human Fc-gamma receptor 1
T4 sequence (P12314 16-288): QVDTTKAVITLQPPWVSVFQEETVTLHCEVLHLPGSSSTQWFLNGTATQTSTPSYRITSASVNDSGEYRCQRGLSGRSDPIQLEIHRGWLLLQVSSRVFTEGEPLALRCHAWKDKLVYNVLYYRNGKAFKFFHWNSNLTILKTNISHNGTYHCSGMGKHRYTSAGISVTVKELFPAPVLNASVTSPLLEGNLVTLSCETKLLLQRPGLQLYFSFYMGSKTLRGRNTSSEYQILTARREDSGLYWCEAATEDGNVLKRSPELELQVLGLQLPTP
Experimental: (§4) Receptor protein (50 ng/well) was added to the wells of a Meso Scale standard bare plate in PBS. […] The plates were washed three times in PBS/0.05% Tween-20. Stock solutions of all antibodies were prepared at 0.5 mg/mL in 1% MSD blocker A in PBS-Tween and serially diluted 1:3. The indicated antibodies were added to each reaction well. Recombinant protein and antibodies were incubated for 2 hours at room temperature and then the plates were washed 2 times with PBS/0.05% Tween. Secondary antibody was added to each well. After one hour at room temperature with agitation followed by 40 mins at room temperature, the plates were washed 2 times with PBS/0.05% Tween-20. For detection, 150 μL of a 1× Read Buffer (MSD cat # R92TC-1, 4×) were added to each well. The plate was then read using a Sector Imager 2400.

[9] = biological target: T1, FcγR2a(H); assay: as above
Experimental: as §4

[10] = biological target: T5, FcγR3a (V) (human, UniProt P08637 17-208); assay: as above
T5 construct: V158 allotype as printed
T5 sequence (P08637 17-208 F176V): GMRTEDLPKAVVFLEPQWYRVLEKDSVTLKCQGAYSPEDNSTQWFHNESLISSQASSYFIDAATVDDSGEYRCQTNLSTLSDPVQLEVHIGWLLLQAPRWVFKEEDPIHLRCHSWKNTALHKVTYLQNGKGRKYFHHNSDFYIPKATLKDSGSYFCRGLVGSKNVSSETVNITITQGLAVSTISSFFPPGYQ
Experimental: as §4

[11] = biological target: T2, huTGFβ RIIFc (recombinant extracellular …); assay: SPR (Biacore), TGFβ RII-Fc extracellular domain immobilized at low density; Antibody A; KD
Experimental: as §3

| EC50 [1] | IC50 [2] | IC50 [3] | IC50 [4] | Kd [5] | CDC activity EC50 (nM), BxPC3 target cells, human complement [6] | CDC activity EC50 (nM), HEK293 target cells, human complement [6] | CDC activity EC50 (nM), MDA-MB-231 target cells, human complement [6] | CDC activity EC50 (nM), TGFRβII-HEK target cells, human complement [6] | EC50 [7] | EC50 [8] | EC50 [9] | EC50 [10] | Kd [11] | Binder |
| --- | --- | --- | --- | --- | --- | --- | --- | --- | --- | --- | --- | --- | --- | --- |
| 0.306 nM | 5.48 nM | 4.45 nM | 4.41 nM | 0.0106 nM | – | – | – | – | – | – | – | – | – | LY3022859 (antibody, IgG1, V domains shown, the antibody is disclosed in WO 2010/053814; also called TGFβRII mAb LY3022859; anti-TGFβ RII antibody IgG1) VH: QLQVQESGPGLVKPSETLSLTCTVSGGSISNSYFSWGWIRQPPGKGLEWIGSFYYGEKTYYNPSLKSRATISIDTSKSQFSLKLSSVTAADTAVYYCPRGPTMIRGVIDSWGQGTLVTVSS VL: EIVLTQSPATLSLSPGERATLSCRASQSVRSYLAWYQQKPGQAPRLLIYDASNRATGIPARFSGSGSGTDFTLTISSLEPEDFAVYYCQQRSNWPPTFGQGTKVEIK |
| – | 4.83 nM | 4.4 nM | 4.36 nM | – | > 200 nM | > 200 nM | > 200 nM | > 200 nM | 0.277 nM | > 2000 nM | > 2000 nM | > 2000 nM | 0.0222 nM | Antibody A (antibody, human IgG1, kappa, same variable regions as LY3022859; also called anti-TGFβ RII antibody IgG1 effector null) heavy: QLQVQESGPGLVKPSETLSLTCTVSGGSISNSYFSWGWIRQPPGKGLEWIGSFYYGEKTYYNPSLKSRATISIDTSKSQFSLKLSSVTAADTAVYYCPRGPTMIRGVIDSWGQGTLVTVSSASTKGPSVFPLAPSSKSTSGGTAALGCLVKDYFPEPVTVSWNSGALTSGVHTFPAVLQSSGLYSLSSVVTVPSSSLGTQTYICNVNHKPSNTKVDKRVEPKSCDKTHTCPPCPAPEAEGAPSVFLFPPKPKDTLMISRTPEVTCVVVDVSHEDPEVKFNWYVDGVEVHNAKTKPREEQYNSTYRVVSVLTVLHQDWLNGKEYKCKVSNKALPSSIEKTISKAKGQPREPQVYTLPPSREEMTKNQVSLTCLVKGFYPSDIAVEWESNGQPENNYKTTPPVLDSDGSFFLYSKLTVDKSRWQQGNVFSCSVMHEALHNHYTQKSLSLSPGK light: not shown |
